Tests used:
[1] = molecular target: T1, HER3 on human tumour cells (human, UniProt P21860 20-1342); assay: flow cytometry on MALME-3M cells, fluorochrome-labelled secondary antibody
T1 construct: whole, on cells; also called ErbB3
Procedure: (§1) The FACS analysis was carried out as described below.
(§2) Cells were washed with PBS and resuspended in DMEM containing 10% FBS at 1×10⁵ cells/100 μl. 100 μl cell suspension was added into each microcentrifuge tube, followed by 10 μl/tube of the antibody variants. The tubes were incubated for 2 hr 4° C. on a rotator. The microcentrifuge tubes were centrifuged for 2 min 2000 RPM at room temperature and the cell pellets washed with 500 μl media. Each cell pellet was resuspended 100 μl of fluorochrome-labelled secondary antibody diluted in media to 2 μg/sample. The samples were then incubated for 1 hr at 4° C. on a rotator. After incubation, the cells were centrifuged for 2 min at 2000 RPM and washed in media. The cells were resuspended in 500 μl media, filtered in tube containing 5 μl propidium iodide (PI) and analyzed on a BD™ LSRII flow cytometer according to the manufacturer's instructions.

[2] = molecular target: T2, HER2 and HER3 co-expressed on human tumour cells (human, UniProt P04626 23-1255; P21860 20-1342); assay: cell-based or functional assay
[3] = molecular target: T2, HER2 and HER3 co-expressed on human …; assay: flow cytometry on MALME-3M cells, fluorochrome-labelled secondary antibody
Procedure: as §1, §2

Row | binding result [1] | EC50 (read off the curve) [3] [µM] | Binder | BT-474 cell viability relative to untreated cells (Sulforhodamine B, 6 days, no heregulin) [2] [% increase]
1 | binds | – | v877 (monospecific bivalent antibody with two identical HER3-binding scFvs connected to a homodimeric Fc) (antibody, V domains shown, also called variant 877; monospecific bivalent control for HER3) VH: QVQLQESGGGLVKPGGSLRLSCAASGFTFSSYWMSWVRQAPGKGLEWVANINRDGSASYYVDSVKGRFTISRDDAKNSLYLQMNSLRAEDTAVYYCARDRGVGYFDLWGRGTLVTVSS VL: QSALTQPASVSGSPGQSITISCTGTSSDVGGYNFVSWYQQHPGKAPKLMIYDVSDRPSGVSDRFSGSKSGNTASLIISGLQADDEADYYCSSYGSSSTHVIFGGGTKVTVL | –
2 | – | ~0.01 | Variant 880 (bi-specific anti-HER2-HER3 antibody; B1D2 scFv on chain A, H3 scFv on chain B, heterodimeric Fc) (bispecific antibody, also called v880; bsAb variant 880) scFv-Fc A: QVQLVQSGAEVKKPGESLKISCKGSGYSFTSYWIAWVRQMPGKGLEYMGLIYPGDSDTKYSPSFQGQVTISVDKSVSTAYLQWSSLKPSDSAVYFCARHDVGYCTDRTCAKWPEWLGVWGQGTLVTVSSGGGGSSGGGSGGGGSQSVLTQPPSVSAAPGQKVTISCSGSSSNIGNNYVSWYQQLPGTAPKLLIYDHTNRPAGVPDRFSGSKSGTSASLAISGFRSEDEADYYCASWDYTLSGWVFGGGTKLTVLGAAEPKSSDKTHTCPPCPAPELLGGPSVFLFPPKPKDTLMISRTPEVTCVVVDVSHEDPEVKFNWYVDGVEVHNAKTKPREEQYNSTYRVVSVLTVLHQDWLNGKEYKCKVSNKALPAPIEKTISKAKGQPREPQVYTYPPSRDELTKNQVSLTCLVKGFYPSDIAVEWESNGQPENNYKTTPPVLDSDGSFALVSKLTVDKSRWQQGNVFSCSVMHEALHNHYTQKSLSLSPGK scFv-Fc B: not shown | 36

Reference: patent US20160083480A1 (Zymeworks, published 2016)
